Data published in the supplement of paper PMC9170038.

Tested on: MS2 coat protein
Test: apparent KD of MS2 coat protein; designed switch direction (-1 OFF switch, 1 ON switch): -1; higher = weaker reporter binding
In short: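 Transcription of designed RNA switches on Illumina chips was done by stalled E. coli RNA polymerase. SNAP-549-labelled MS2 coat protein was then titrated in doubling steps from 0.7 or 1.5 nM to 3 µM, with steps of 0.8–1.5 h at the lowest and 10–20 min at the highest concentration. The per-design median over clusters of curve-fitted normalised fluorescence is reported as apparent KD.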

[1] = input ligand: microRNA oligo, concentration not stated
[2] = Eterna round: R95, input ligand: FMN 200 uM
[3] = Eterna round: R95, input ligand: microRNA oligo, concentration not stated
[4] = Eterna round: R95, input ligand: none

Row | Sequence | apparent KD of MS2 coat protein (input ligand: FMN 200 uM) [nM] | apparent KD of MS2 coat protein (input ligand: none) [nM] | apparent KD of MS2 coat protein [3] [nM] | further results
1 | CUGAUGUUAGGAUAUCAGGUCACGCGCGAAGGCGCGCGGCAUGAGAAGGAACAUGAGGAUCACCCAUGUGACGA [Reisquso] (Eterna round: R96, puzzle: Exclusion 4) | 305 | 43.3 |  | apparent KD of MS2 coat protein [1]: 29.6 nM
2 | CUGCUCCGUGUAGGAUAUGCGCGCAACCAACGCGCAGAAGGACAUGAGGAUCACCCAUGUAUGUUAUUAUCACGUGAAGCGUCC [Design 30] (Eterna round: R96, puzzle: Exclusion NG 1) | 56.7 | 18.2 |  | apparent KD of MS2 coat protein [1]: 19.9 nM
3 | CUGGAAAACGAGGAUAUGCACCGGCUCGCUGACGCAGAAGGCGACACAUGAGGAUCACCCAUGUCGGUACGCGA [salish99_ex6_r004_449] (Eterna round: R97, puzzle: Exclusion 6) | 17.2 | 18.8 |  | 
4 | CUGGACCGAGGAUAUAUUAUGUGAAACAUGAGGAUCACCCAUGUAAUAUGAUGGAUGUAAAUAGAAGGCGGUCUAG [Mat - Exclusion 5 - JL mod - D28] (puzzle: Exclusion 5) |  |  | 35.1 | apparent KD of MS2 coat protein [2]: 34.5 nM; apparent KD of MS2 coat protein [4]: 47.3 nM
5 | CUGGAGUCAGGAUAUGACGCAGUCCGCCCAAAGGGCGGAAAUCAGAAGGGACUUGAGGAUCACCCAAGUAAAAG [Gecear] (Eterna round: R97, puzzle: Exclusion 4) | 28.8 | 31.4 |  | 
6 | CUGGUCCGAGGAUAUAUUAUGUGAUACAUGAGGAUCACCCAUGUUAUAUGAUGGAAAUAAAUAGAAGGCGGACUAG [Mat - Exclusion 5 - JL mod - D67] (puzzle: Exclusion 5) |  |  | 70.5 | apparent KD of MS2 coat protein [2]: 79 nM; apparent KD of MS2 coat protein [4]: 69 nM
7 | CUGGUCCGAGGAUAUAUUUUGUGAAACAUGAGGAUCACCCAUGUAAUAAAAUGGAUAUAAAUAGAAGGCGGACUAG [Mat - Exclusion 5 - JL mod - D41] (puzzle: Exclusion 5) |  |  | 21 | apparent KD of MS2 coat protein [2]: 25.1 nM; apparent KD of MS2 coat protein [4]: 18.1 nM
8 | CUGGUCCGAGGAUAUAUUUUGUGAUACAUGAGGAUCACCCAUGUAAUAAGAUGGAAGUAAAUAGAAGGCGGACUAG [Mat - Exclusion 5 - JL mod - D47] (puzzle: Exclusion 5) |  |  | 125 | apparent KD of MS2 coat protein [2]: 69.3 nM; apparent KD of MS2 coat protein [4]: 150 nM
9 | CUGGUCUAUGUAGGAUAUGGUGUAUAUGUAUUACCAGAAGGACAUGAGGAUCACCCAUGUGUCGUGGUAUGAGUAGGUGAUGUU [Random] (Eterna round: R96, puzzle: Exclusion NG 1) |  |  |  | apparent KD of MS2 coat protein [1]: 40.2 nM
10 | CUGGUGUGAGGAUAUCAGGGCACGCCCAAGGGCGUACCAAAUGAGAAGGCACAUGAGGAUCACCCAUGUGGGAC [Lasoena] (puzzle: Exclusion 4) |  |  | 32 | 
11 | CUGUACUGAGGAUAUACAUGAGGAUCACCCAUGUGAUUUAGUGCACGCGUACGUGUACGUAGAAGGCAGUACAG [Mat - Exclusion 3 - Eli Mod - D36] (Eterna round: R97, puzzle: Exclusion 3) | 183 | 25.2 |  | 
12 | CUGUACUGAGGAUAUACAUGAGGAUCACCCAUGUGUACCAGCUAGGAAACUAGCAAAAGUAGAAGGCAGUACAG [Mat - Exclusion 3 - Eli Mod - D62] (Eterna round: R97, puzzle: Exclusion 3) | 27.6 | 13.3 |  | 
13 | CUGUACUGAGGAUAUACAUGAGGAUCACCCAUGUUCUUCGGCUAGGAAACUAGCAAAGGUAGAAGGCAGUACAG [Mat - Exclusion 3 - Eli Mod - D68] (Eterna round: R97, puzzle: Exclusion 3) | 234 | 15.1 |  | 
14 | CUGUGAUGAGGAUAUACAUGAGGAUCACCCAUGUGUCCUCUGAUGGGUAGGGACCCUGGUAGAAGGCAUUGAGA [Eternabot (L1) Solution 52] (Eterna round: R97, puzzle: Exclusion 3) | 19.2 | 15.5 |  | 
15 | CUGUGCACGCUGCGGUCCUACAUGAGGAUCACCCAUGUGGUCUGGUGGCGUGGGUCACCGGACUUGGCUCGUCUUGC [salish99_S_TOV1_R5_062] (Eterna round: R97, puzzle: Sensor, turn-off variant 1) | 22.9 | 22.5 |  | 
16 | CUGUGUAGACAGGAUAUGCUGUACAAAAGUACAGCAGAAGGGUCUACAUGAGGAUCACCCAUGUUUACUUCAUG [)mei Ex6 B23] (Eterna round: R97, puzzle: Exclusion 6) | 20.4 | 98.4 |  | 
17 | CUUAGACAUGAGGAUCACCCAUGUGAGGAUAUGAUGCAGCAGUGGUCUACGCUGUGCAUCAGAAGGCACAUAUG [mod of disincluded 3 v.3 (my top score 87 - 28% A's)] (puzzle: Exclusion 1) |  |  | 108 | 

Row | Sequence | apparent KD of MS2 coat protein (input ligand: FMN 200 uM) [nM] | apparent KD of MS2 coat protein (input ligand: none) [nM] | apparent KD of MS2 coat protein [3] [nM] | further results
18 | CUUAGACAUGAGGAUCACCCAUGUGAGGAUAUGAUGCGAAUGAAGAAAGAAGGAAGCAUCAGAAGGCACAUAUG [Mat - Mod of Hyphema D26] (puzzle: Exclusion 1) |  |  | 163 | apparent KD of MS2 coat protein [2]: 323 nM; apparent KD of MS2 coat protein [4]: 143 nM
19 | CUUCGACAUGAGGAUCACCCAUGUCAGGAUAUUGUGUAUCGGGUUUUUUACGGAUAGGCAAGAAGGGAUGUGUG [LRO-Excl1-06] (puzzle: Exclusion 1) |  |  | 32.7 | 
20 | CUUCUGUGAGGAUAUUAGUAGUAAAUGAAUAAAAUUAUUACUGAGAAGGCACAUGAGGAUCACCCAUGUUCCUC [Mat - Exclusion 4 - Eli Mod - D12] (Eterna round: R97, puzzle: Exclusion 4) | 386 | 36.3 |  | 
21 | CUUGUCCGAGGAUAUAUUAUGUGAUACAUGAGGAUCACCCAUGUUAUAUGAUGGAUAUAAAUAGAAGGCGGACGAG [Mat - Exclusion 5 - JL mod - D68] (puzzle: Exclusion 5) |  |  | 46.7 | apparent KD of MS2 coat protein [2]: 70.2 nM; apparent KD of MS2 coat protein [4]: 47.3 nM
22 | CUUGUUUAUGUGAGGAUAUACUGUUAGUAAUGUUUGUAGAAGGUACAUGAGGAUCACCCAUGUUUAUUUUUUUU [JR_BME4_Sub044] (puzzle: Brourd's mod of Exclusion 4) |  |  | 20.2 | 
23 | CUUUAGCUAGGAUAUACAUGAGGAUCACCCAUGUUAGCGGUCCAUUGGGCCGCGGGUUGUAGAAGGAGCAUUAA [Azabeso] (puzzle: Exclusion 3) |  |  | 25.3 | 
24 | CUUUAGUGAGGAUAUGUGGCUUCGAUCGUGAGAUCGAGGCUACAGAAGGCACAUGAGGAUCACCCAUGUUCCUC [jl-ex4-4.01 salish99 mod] (Eterna round: R97, puzzle: Exclusion 4) | 464 | 34.1 |  | 
25 | CUUUAGUGAGGAUAUUAGUAGUAAUACAAUAGUAUUACUACUGAGAAGGCACAUGAGGAUCACCCAUGUUCCUC [Mat - Exclusion 4 - Mod of Omei - D79] (Eterna round: R96, puzzle: Exclusion 4) | 303 | 28.5 |  | apparent KD of MS2 coat protein [1]: 25 nM
26 | CUUUAGUGAGGAUAUUAGUAGUAAUACAAUAGUAUUACUACUGAGAAGGCACAUGAGGAUCACCCAUGUUCCUC [Mat - Exclusion 4 - Mod of Omei - D79] (puzzle: Exclusion 4) |  |  | 28 | 
27 | CUUUCGUGAGGAUAUCAGUAGUAAUAAUAUAAAAUUACUACUGAGAAGGCACAUGAGGAUCACCCAUGUUCCUC [salish99_ex3_r3_101] (puzzle: Exclusion 4) |  |  | 23.7 | 
28 | CUUUCGUGAGGAUAUGAAGCUUCGAUCGUGAGAUCGAGGCUACAGAAGGCACAUGAGGAUCACCCAUGUUCCUC [salish99_ex4_r4_217] (Eterna round: R97, puzzle: Exclusion 4) | 666 | 31.9 |  | 
29 | CUUUCGUGAGGAUAUGUGGCUUCGAUCGUGCGAUCGAGGCUACAGAAGGCACAUGAGGAUCACCCAUGUUCCUC [salish99_ex4_r4_221] (Eterna round: R97, puzzle: Exclusion 4) | 427 | 45.6 |  | 
30 | CUUUUCAGAGGAUAUAGAUAUUAUCACAUGAGGAUCACCCAUGUAACCCUACAUUCACCACUAGAAGGCUGUUAAG [lam1] (Eterna round: R97, puzzle: Exclusion 5) | 27.1 | 48.5 |  | 
31 | CUUUUGUGAGGAUAUCAGUAGUAAAAAAAUAAAAUUACUACUGAGAAGGCACAUGAGGAUCACCCAUGUUCCUU [salish99_ex4_r3_010] (puzzle: Exclusion 4) |  |  | 15.2 | apparent KD of MS2 coat protein [2]: 28.4 nM; apparent KD of MS2 coat protein [4]: 14 nM
32 | CUUUUGUGAGGAUAUCAGUAGUAAAUAAAUAAAAUUACUACUGAGAAGGCACAUGAGGAUCACCCAUGUUCCUU [salish99_ex3_r3_089] (puzzle: Exclusion 4) |  |  | 15.3 | 
33 | CUUUUGUGAGGAUAUCAGUAGUAAAUAAUUAAAAUUACUACUGAGAAGGCACAUGAGGAUCACCCAUGUUCCUC [salish99_ex3_r3_080] (puzzle: Exclusion 4) |  |  | 40.3 | 
